Assay: yeast display, Sf9 membrane polyspecificity reagent, FACS + sequencing; frameworks hold sequencing errors
Outline: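 Genes from sorted yeast were amplified by colony PCR, read by MiSeq 2 × 250 sequencing and filtered on CDR length. These cells carried a synthetic nanobody library in Saccharomyces cerevisiae BJ5465 and were sorted by FACS into low and high (top ~1%) gates on anti-HA and streptavidin fluorescence. Polyreactivity is labelled according to the gate of origin.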

Sequence	polyreactivity (PSR sort gate)
QVQLVESGGGLVQAGGSLRLSCAASGFIFRSNAMGWYRQAPGKERELVAAISGRGCSTYYADSVKGRFTISRDNAKNTVYLQMNSLKPVDTAVYYCAKSTVWVLYGYWGQGTQVTVSS	high polyreactivity
QVQLVESGGGLVQAGGSLRLSCAASGRTFHRYAMGWYRQAPGKERELVATISRGGSTNYADSVKGRFTISRDNAQTTVYLQRNSLKTEETAVYYCAREYYGSWDSGGGGYWGQGTQVTVAS	high polyreactivity
QVQLVESGGGLVQAGGSLRLSCAASGFTFGRNAMGWYRQAPGKERELVARITTGGSTNYADSVKGRFTISRDNAKNTVYLQMNSLKPEDTAVYYCAATYRSLALFWTYGYWGQGTQVTVSS	low polyreactivity
QVQLVESGGGLVQAGGSLRISCAASGSTFDPNAMGWYRQAPGKERELVAVIDSGDGTTYYADSVKGRFTISRDIAKNTVSFQMISQKREDTAVYYCAVDESTSYYDDHEDYWGQRTQVTVSS	low polyreactivity
QVQLVESGGGLVQAGGSLRLSCAASGRIYSRYAMGWYRQAPGKERELVAAISASGGSTYYADSVKGRFTISRDNAKNTVYLQMNSLKPEDTAVYYCNAYQTSTPLFPGYGYWGQGTQVTVSS	low polyreactivity
QVQLVESGGGLVQAGGSLRLSCAASGRIFYYNAMGWYRQAPGKEREFVAAISSGGGSTYYADSVKGRFTISRDNAKNTVYLQMNSLKPEDTAVYYCAADGYYYDYYYYWGDYGYWGQGTQVTVSS	high polyreactivity
QVKLVESAGGLVKAGGSLRLSSAASGITFNLYAMGCYSQSPGKERELVAAISWSGGSTYYADSVKGRFTISREHAKNTVYLQMNSLNQEDTAVYYCAAAWDYSAPYTYIYDYWGLGTQVTVSS	low polyreactivity
QVQLVESGGGLVQAGGSLRLSCAASGFTFPWYAMGWYSQAPGKERELVAAITSGGGSTYYADSVKGRFTISRDYAKNTVYLQMNSLKPEDTAVYYCAAVPALKWYGYEYWGQGTQVTVSS	high polyreactivity
QVQLVESGGGLVPAGGSLRLICAASGSTFYGYAIGWYRPAPGKVRELVATITSGGTRTRYADSVKGRFTISRDNAKKTVYLQMNSLKPEDTAVYYCNAVYRARSYDYWGQGTQVTVSS	high polyreactivity
QVQLVESGGGLVQAGGSLRLSCAASGSIFPYNDMGWYRQAPGKERELVAAISDSAGSTYYADSVKGRFTISRDNAKNTVYLQMNSLKPEDTAVYYCAADSWDSQVVSYEYWGQGTQVTVSS	low polyreactivity
QVQLVESGGGLVQAGGSLRLSCAASGRTFYNYAMGWYRQAPGKERELVASIRKNGGSTYYADSVKGRFTISRDNAKNTVYLQMNSLKPEDTAVYYCDARYWGISRIFPSKYDYWGQGTQVTVSS	high polyreactivity
QVQLVESGGGLVQAGGSLRLSCAASGSIFLWNAMGWYRQAPGKEREFVASITSRGGSTYYADSVKGRFTISRDNAKNTVYLQMNSLKPEDTAVYYCAAVRSKYWYYQGGYSSYGYWGQGTQVTVSS	high polyreactivity
QVQLVESGGGLVQAGGSLRLSCAASGRTSVVHAMGWYRQAPGKERELVAAITSGGSTHYADSVKGRFTISRDNAKNTVYLQMNSLKPEDTAVYSCNARDRRRTNLLDYWGQGTQVTVSS	low polyreactivity
QVQLVESGGGLVQAGGSLRLSCAASGSTSAYYVMGWYRQAPGKERELVAAIDFSGDSTYYADSVKGRFTISRDNAKNTVYLQMNSLKPEDTAVYYCAAELFNYSSLVSYEYWGQGTQVTVSS	high polyreactivity
QVQLVESGGGLVLAGGSLRLSCAASGRTFGVYAMGWYRQAPGKERELVADITYRDGSTYYADSVKGRFTISRDNAKNTVYLQMHSLKPEDTAVYYCAAAESTWFDWVWMDYWGQGTQVTVSS	high polyreactivity
QVQLVESGGGLVQAGGSLRLSCAASGRTLYWYAMGWYRQAPGKERELVAAISSGGGSTYYADSVKGRFTISRDNAKNTVYLQMNSLKPEDTAVYYCATDEPWVYGYDYWGQGTQVTVSS	low polyreactivity
QVQHVESGGRLVQAGGSLRLSWAASGRIFRVNAMGRYRQAPGKERELVAAINFSGTSTYFADSVKGRFTISRDNAKNTVYLQMNSLKPDDTAVYYCNALTTSNSGRFYYWGQGTQVTVSS	low polyreactivity
